Assay results: PMC10985318

Substrate: Nc1ncnc2c1ncn2[C@@H]1O[C@H](COP(=O)(O)OP(=O)(O)OP(=O)(O)O)[C@@H](O)[C@H]1O
Assay: purified protein
Conditions: MgATP, MgCl2 twice the ATP concentration, 25 mM Tris/HCl pH 8.0, 60 mM KCl, 25 °C, at saturating MgATP, non-Michaelis kinetics, local double-reciprocal fit of three consecutive concentrations

B1: V1ΔHC (S. cerevisiae V1-ATPase lacking subunits H and C) (Saccharomyces cerevisiae S288C) (protein)
chain 1: AGAIENARKEIKRISLEDHAESEYGAIYSVSGPVVIAENMIGCAMYELVKVGHDNLVGEVIRIDGDKATIQVYEETAGLTVGDPVLRTGKPLSVELGPGLMETIYDGIQRPLKAIKEESQSIYIPRGIDTPALDRTIKWQFTPGKFQVGDHISGGDIYGSVFENSLISSHKILLPPRSRGTITWIAPAGEYTLDEKILEVEFDGKKSDFTLYHTWPVRVPRPVTEKLSADYPLLTGQRVLDALFPCVQGGTTCIPGAFGCGKTVISQSLSKYSNSDAIIYVG
chain 2: CGERGNEMAEVLMEFPELYTEMSGTKEPIMKRTTLVANTSNMPVAAREASIYTGITLAEYFRDQGKNVSMIADSSSRWAEALREISGRLGEMPADQGFPAYLGAKLASFYERAGKAVALGSPDRTGSVSIVAAVSPAGGDFSDPVTTATLGITQVFWGLDKKLAQRKHFPSINTSVSYSKYTNVLNKFYDSNYPEFPVLRDRMKEILSNAEELEQVVQLVGKSALSDSDKITLDVATLIKEDFLQQNGYSTYDAFCPIWKTFDMMRAFISYHDEAQKAVANGANWSKLADSTGDVKHAVSSSKFFEPSRGEKEVHGEFEKLLSTMQERFAESTD
chain 3: VLSDKELFAINKKAVEQGFNVKPRLNYNTVSGVNGPLVILEKVKFPRYNEIVNLTLPDGTVRQGQVLEIRGDRAIVQVFEGTSGIDVKKTTVEFTGESLRIPVSEDMLGRIFDGSGRPIDNGPKVFAEDYLDINGSPINPYARIYPEEMISTGVSAIDTMNSIARGQKIPIFSASGLPHNEIAAQICRQAGLVRPTKDVHDGHEENFSIVFAAMGVNLETARFFKQDFEENGSLERTSLFLNLANDPTIERIITPRLALTTAEYLAYQTERHVLTILTDMSSYADALREVSAAREEVPGRRGYPGYMYTDLSTIYERAGRVEGRNGSITQIPILTMPNDDITHPIPDLTGYITEGQIFVDRQLHNKGIYPPINVLPSLSRLMKSAIGEGMTRKDHGDVSNQLYAKYAIGKDAAAMKAVVGEEALSIEDKLSLEFLEKFEKTFITQGAYEDRTVFESLDQAWSLLRIYPKEMLNRISPKILDEFYDRARDDADEDEEDPDTRSSGKKKDASQEESLI
Km: 41.7 µM
kcat: 9.6 s⁻¹
